According to patent US12677828B2, “Lipid encasing amphipathic peptides” (Kansas State University Research Foundation, priority 2019, dated 2026):

Legend:
[1] = tested on: leaves of Vicia faba (Fava beans); assay: Effects of formulations sprayed on leaves; details: Vicia faba (fava bean), in vivo, 24 h
Experimental: In this study, we looked at the effects of the Captan fungicide formulation with and without the LEAP peptide when applied to the leaves of Vicia faba (Fava beans). Three formulations were prepared for this experiment: […]
Deionized water was added to each formulation to a final volume 1 mL and allowed to stand at room temperature for 60-90 min. […]

[2] = Encapsulation of soy oil containing Nile Red dye by peptide; type: physicochemical; details: 22 μL soy oil with Nile Red, 480 μL water
Experimental: (§1) Initial encapsulation studies were carried out using high purity soy oil containing a lipid soluble dye, Nile Red. Studies were carried out using FLIVI-KKKKK (SEQ ID NO:1, where X is F). Increasing concentrations of the peptide (see FIG. 2) were prepared in Trifluoroethanol and dried in vacuo. To each tube, 22 μL of soy oil containing Nile Red dye (1 mg/mL) was added and allowed to stand for 15 min. Distilled/deionized water (480 μL) was then added and mixed repeatedly using a vortex mixer over a period of at least 5 min. The solution became somewhat cloudy as the dye containing colloids formed at the higher peptide concentrations. 25% was encapsulated at 0.5 mM peptide concentration with 80% encapsulated by the 1 mM peptide concentration. The colloids formed using the FLIVI-KKKKK (SEQ ID NO:1, where X is F) sequence remain stable in a water solution for extended periods of time (at least 12 months).

[3] = Stability of colloids in water solution; type: physicochemical; details: soy oil colloids
Experimental: as §1

Aspergillus nidulans = assay: Antifungal activity on spore seeded plates (1% skim milk agar), Example 3; type: cell-based; details: 0.5% Captan in 1:1 propionic acid/soy oil, applied as mixture alone (label Captan) or encased in the named peptide; 5 to 40 μL spotted
Experimental: A 0.5% solution of Captan was prepared in a 1:1 mixture of propionic acid and soy oil (final volume of 10 μL for each peptide). The solution was added to 1 mg of dried peptide. After incubating for 15 min, water (490 μL, pH=3) was added dropwise, then sonicated in a bath sonicator for 5 min at 37° C. and allowed to stand for 20 min. The sample was then centrifuged at room temperature for 10 min at 14K×g. At this point each peptide-lipid complex formed a whitish film on the surface of the water. The volume of water was reduced using a Pipetman leaving a final volume of 150 μL. The solution was again vortexed to resuspend the colloids. An illustration of the colloidal particle with the active ingredient distributed throughout the colloidal body is shown in FIG. 3. A number of different controls were tested along with the peptides prepared with all of the components: soy oil only, soy oil+propionic acid, soy oil+propionic acid+Captan. Volumes of from 5 to 40 μL were spotted on spore seeded plates of Aspergillus nidulans grown on 1% skim milk agar gel) yielding 0.33 and 1.33 μg of active agent delivered, respectively (FIG. 4).
In FIG. 4, lawns of A. were seeded just before testing. The actively growing fungus appears greenish yellow in color. For controls (FIG. 5A) soy oil and soy oil+propionic acid (1:1, v/v) were applied directly to the plates at the indicated volumes. […] When the 1:1 soy plus propionic acid was separately encased using the two peptides (FIG. 5B, columns 1 and 2) there was minimal antifungal activity. In FIG. 5C, column 1, Captan was dissolved in the propionic acid prior to mixing with the soy oil.

A. nidulans = assay: Growth inhibition, Captan alone or LEAP encapsulated at different concentrations, Example 4; type: cell-based, Aspergillus nidulans; details: 50 μL per plate
Experimental: In this example, the effectiveness of Captan alone or encased in a LEAP colloidal particle on A. nidulans growth was compared. Different concentrations of Captan were tested for growth inhibition when applied directly to freshly seeded fungi growing on 1% milk plates or after encapsulation as a colloidal particle with a LEAP (h5F-L). Captan was dissolved in a formulated (1:1:2) solution containing propionic acid, soy oil, and a pesticide synergist, Piperonyl butoxide (PBO). The resulting active solution was diluted to the following concentrations: 1%, 0.1%, 0.05%, 0.01%, 0.005%, 0.001%. A volume of 50 μL of the 1:1:2 solution containing the fungicide was combined with 1 mmole of dry peptide and then allowed to stand for 20 minutes. Deionized water was then added to the colloidal mixture to raise the total volume to 1 mL, followed by sonicating the mixture for 5 minutes, and then incubating for 60-90 minutes. A volume of 50 μL for each test solution was added to the center of each plate (FIG. 6).

[4] = cited from earlier work
[5] = Average size and zeta potential by light scattering (ZetaPlus), soy oil colloids; type: physicochemical; details: peptide colloids in high purity soy oil
Experimental: Peptide colloids were prepared with either Ac-FLIVI-KKKKK-CO-NH2 (SEQ ID NO:1, where X is F, “h5F-L”) or Ac-VLIVI-KKKKK-CO-NH2 (SEQ ID NO:1, where X is V, “h5V-L”), in high purity soy oil were tested for average size and zeta potential (surface charge) using light scattering on a ZetaPlus particle sizing instrument. A control was prepared using high purity soy oil mixed with water and sonicated.

[6] = Resizing by extrusion through 100 nm polycarbonate filters; type: physicochemical; details: extruded through 100 nm polycarbonate filters
Source text: Given that particle sizes for both peptides were above the nanoscale cutoff of 100 nm, the samples were subjected to resizing by extruding them through 100 nm polycarbonate filters. The […]-L particles were resized to about 80 nm after extrusion (data not shown). The […]-L particles could be resized to about 90 nm.

[7] = Dynamic light scattering of LEAP alone in water (micelles); type: physicochemical; details: 1 mg peptide in water, no excipient
Experimental: One mg of the LEAP (Ac-FLIVIKKKK-CONH2, SEQ ID NO:1, where X is F) was dissolved in 500 μL of DDI-RO water. The solution was sonicated for 10 min then allowed to rest at room temperature for approximately 60 min. This solution was further diluted to 10 mL with DDI-RO water prior to dynamic light scattering analysis. Light scattering data was recorded using an Anton-Parr Litesizer 500 instrument and processed using the proprietary ‘Kalliope’ analysis software. The DLS calculations indicated particles with a hydrodynamic diameter of 928.3 nm with peak numerical intensity at 120.09 nm and a polydispersity index of 229.1%.

M. sexta larvae = assay: Persistence assay, 3-day and 5-day waiting period before adding larvae; type: in vivo, Manduca sexta; details: Novarulon 0.02%; both waiting periods (3-day, 5-day) before adding first instar larvae
Experimental: Subsequently, a persistence assay was conducted to see if the LEAP colloidal particles could protect the active ingredient from environmental degradation. Two studies were conducted, one with a 3-day (FIG. 8) and the other with a 5-day (FIG. 9) waiting period before adding the first instar larvae. The methods used to prepare the LEAP colloidal particle encased materials and the preparation of the coated leaves were identical as described above, except that the leaf discs were allowed to sit in the incubator under the previously described conditions outlined above for the designated time period. After the designated waiting period, 1-day old (first instar) M. sexta larvae were place on the treated leaves. Each day the number of dead larvae were counted. Examining FIGS. 8 and 9, it is clear to see that the LEAP colloidal particles containing the active ingredient Novarulon started killing faster than the Novarulon control. […] Since the Novarulon by itself was still active it appears that coating the Novarulon containing oil droplet with the peptide appears to have been ingested more efficiently such that the lethal dose was achieved more rapidly.

In the case of `CCC(=O)O` [propionic acid], the leaf damage [1] is reported as “black spots on the leaves after 24 hr”.

With “FLIVI-KKKKK (XLIVIKKKKK; (1)..(1) X is F or V)” the encapsulated ([2]; 0.5 mM peptide concentration) was 25%, the encapsulated ([2]; 1 mM peptide concentration) was 80% and the “colloids remain stable in a water solution” value [3] was “at least 12 months”.

With `O=C1[C@H]2CC=CC[C@H]2C(=O)N1SC(Cl)(Cl)Cl` [Captan, (3aR,7aS)-2-[(Trichloromethyl)sulfanyl]-3a,4,7,7a-tetrahydro-1H-isoindole-1,3(2H)-dione] the antifungal activity (Aspergillus nidulans) was “not very effective”, the growth inhibition (A. nidulans; 0.1% concentration) was “only slight inhibition” and the growth inhibition (A. nidulans; highest concentration (1%), propionic acid, soy oil, PBO (1:1:2)) was “strong growth inhibition”. The “solubility in propionic acid” value ([4]; C3 organic acid, propionic acid) was “good solubility” and the “solubility in water relative to acetone and xylene (fold less)” value ([4]; water vs acetone, xylene) was 4000 fold.

For “Ac-VLIVI-KKKKK-CO-NH2 (Ac-VLIVIKKKKK-NH2) [h5V-L, lipid encasing amphipathic peptide]”, the GSD [5] was “GSD 1.528”, the “Median Diam.” value [5] was “Median Diam. 216.5 nm” and the zeta potential [5] was 43±1.6 mV. The “particle size after extrusion” value [6] was “about 90 nm” and the antifungal activity (Aspergillus nidulans) was “a small amount of antifungal activity”.

With “Ac-FLIVI-KKKKK-CO-NH2 (Ac-FLIVIKKKKK-NH2) [h5F-L, lipid encasing amphipathic peptide]” the GSD [5] was “GSD 1.618”, the “Median Diam.” value [5] was “Median Diam. 363.8 nm” and the zeta potential [5] was 46±2.5 mV. The “particle size after extrusion” value [6] was “about 80 nm”, the antifungal activity (Aspergillus nidulans) was “complete growth inhibition” and the peak numerical intensity [7] was 120.09 nm. The polydispersity index [7] was 229.1% and the hydrodynamic diameter ([7]; diluted to 10 mL) was 928.3 nm.

With “1-[3-chloro-4-phenyl]-3-urea [Novarulon]” the killing of larvae (M. sexta larvae) was “still active”.
